Laboratory results: US20190345227A1 (HONG KONG UNIVERSITY OF SCIENCE AND TECHNOLOGY, published 2019)

Key:
[1] = molecular target: T1, SpyCatcher-elastin-CarHC-elastin-SpyCatcher; assay: Dynamic shear rheology and erosion tests of the covalently cross-linked (SpyTag-SpyCatcher) hydrogel
T1 construct: Recombinant telechelic fusion protein (68 kDa) with two TEV protease sites, expressed in E. coli; also called BCB; SpyCatcher-ELP-carHC-ELP-SpyCatcher
Text: Protein drugs, an important category of modem therapeutics, have a short half-life time inside the body because of rapid plasma clearance and proteolytic degradation, which constitutes a fundamental challenge for their delivery. The feasibility of using the photoresponsive CarHC-ELP hydrogel system to encapsulate and release protein molecules in a controlled manner was investigated. Two recombinant proteins, SpyTag-elastin-like polypeptide-SpyTag-elastin-like polypeptide-SpyTag (represented by the structural linkage “AAA”) (FIG. 6 and FIG. 13) and BCB, were synthesized with an elastin protein fragment to generate a covalently cross-linked ELP hydrogel. The two proteins were dissolved in PBS to make 10 wt % solutions. Gelation was initiated by mixing the two components at a 2:3 molar ratio and a stoichiometric amount of AdoB₁₂ in the dark. Dynamic shear rheology experiments in time-, frequency- and strain-sweep modes and erosion tests further confirmed the formation of a stable hydrogel (G′=0.96 kPa and G″=0.03 Pa) by AAA+BCB+AdoB₁₂ (FIGS. 14A-14C, respectively, and FIG. 15).

[2] = molecular target: T1, SpyCatcher-elastin-CarHC-elastin-SpyCatc …; assay: Size-exclusion chromatography of the ACA+BCB reaction product and of the light-degraded gel. The major peak eluted at the void volume. The SpyTag-SpyCatcher bond is covalent.
Method: Using an Escherichia coli expression system, sufficient amounts of the ACA (98 mg/L) and BCB (66 mg/L) proteins with high purity (FIG. 6-9) were produced and isolaged. After extensive dialysis against distilled water and lyophilization, the resulting protein powders were readily dissolved in PBS. The two protein solutions, ACA and BCB (10 wt % in PBS), were mixed at an equimolar ratio immediately followed by addition of a stoichiometric amount of AdoB 12 to initiate gelation at room temperature in the dark. A red gel-like material was formed within 5 min; the gelation typically continued for at least 7 h in the dark before any subsequent analysis. The resulting gel was sensitive to light and converted to liquid on exposure to white LED light (30 klux) within 20 min (FIG. 2B). observed gel-sol transition can be explained by the light-induced disassembly of CarHC tetramers (FIGS. 1A & 1B). […] This SEC result further confirmed a sufficient pymerization of the CarHC proteins enabled by the SpyTag-SpyCatcher reaction during gelation.

B1: SpyTag-elastin-like polypeptide-SpyTag-elastin-like polypeptide-SpyTag (other)
chain: MKGSSHHHHHHVDAHIVMVDAYKPTKLDGHGVGVPGVGVPGVGVPGEGVPGVGVPGVGVPGVGVPGVGVPGEGVPGVGVPGVGVPGVGVPGVGVPGEGVPGVGVPGVGELAHIVMVDAYKPTKTSVPGVGVPGVGVPGEGVPGVGVPGVGVPGVGVPGVGVPGEGVPGVGVPGVGVPGVGVPGVGVPGEGVPGVGVPGVGVPGGLLDAHIVMVDAYKPTKLEWKK
notes: Recombinant protein with three SpyTags; It forms the covalent network with BCB; also called AAA; SpyTag-ELP-SpyTag-ELP-SpyTag
B1: binds [1].

B2: SpyTag-elastin-CarHC-elastin-SpyTag (other)
chain: MKGSSHHHHHHVDAHIVMVDAYKPTKLDGHGVGVPGVGVPGVGVPGEGVPGVGVPGVGVPGVGVPGVGVPGEGVPGVGVPGVGVPGVGVPGVGVPGEGVPGVGVPGVGELPEDLGTGLLEALLRGDLAGAEALFRRGLRFWGPEGVLEHLLLPVLREVGEAWHRGEIGVAEEHLASTFLRARLQELLDLAGFPPGPPVLVTTPPGERHEIGAMLAAYHLRRKGVPALYLGPDTPLPDLRALARRLGAGAVVLSAVLSEPLRALPDGALKDLAPRVFLGGQGAGPEEARRLGAEYMEDLKGLAEALWLPRGPEKEAITSVPGVGVPGVGVPGEGVPGVGVPGVGVPGVGVPGVGVPGEGVPGVGVPGVGVPGVGVPGVGVPGEGVPGVGVPGVGVPGGLLDAHIVMVDAYKPTKLEWKK
notes: Recombinant telechelic fusion protein (41 kDa) expressed in E. coli and purified on HisTrap; also called ACA; SpyTag-ELP-carHC-ELP-SpyTag
B2: binds [2].
